Literature values as cited in patent US20250282866A1, “TREATMENT OF DISEASES RELATED TO ATP-BINDING CASSETTE TRANSPORTER 1 DYSFUNCTION USING TREM2 AGONISTS” (VIGIL NEUROSCIENCE, INC., priority 2020, published 2025).

B1: V52: 6E7 variant: VH T30E, Q99G; VL N56R, S93R (antibody, V domains shown)
VH: EVQLVQSGAEVKKPGESLKISCKGSGYSFESYWIAWVRQMPGKGLEWMGIIYPGDSDTRYSPSFQGQVTISADKSISTAYLQWSSLKASDTAMYFCARGRTFYYDSSDYFDYWGQGTLVTVSS
VL: DIQMTQSPSSVSASVGDRVTITCRASQGISSWLAWYQQKPGKAPKLLIYAASSLQRGVPSRFSGSGSGTDFTLTISSLQPEDFATYFCQQADRFPRTFGQGTKLEIK
B2: V61: 6E7 variant: VH T30S, S61N, Q99G; VL Q55V, F94L (antibody, V domains shown)
VH: EVQLVQSGAEVKKPGESLKISCKGSGYSFSSYWIAWVRQMPGKGLEWMGIIYPGDSDTRYNPSFQGQVTISADKSISTAYLQWSSLKASDTAMYFCARGRTFYYDSSDYFDYWGQGTLVTVSS
VL: DIQMTQSPSSVSASVGDRVTITCRASQGISSWLAWYQQKPGKAPKLLIYAASSLVNGVPSRFSGSGSGTDFTLTISSLQPEDFATYFCQQADSLPRTFGQGTKLEIK
B3: V64: 6E7 variant: VH T30Q, Q99G; VL Q55A, F94Y (antibody, V domains shown)
VH: EVQLVQSGAEVKKPGESLKISCKGSGYSFQSYWIAWVRQMPGKGLEWMGIIYPGDSDTRYSPSFQGQVTISADKSISTAYLQWSSLKASDTAMYFCARGRTFYYDSSDYFDYWGQGTLVTVSS
VL: DIQMTQSPSSVSASVGDRVTITCRASQGISSWLAWYQQKPGKAPKLLIYAASSLANGVPSRFSGSGSGTDFTLTISSLQPEDFATYFCQQADSYPRTFGQGTKLEIK
B4: V72: 6E7 variant: VH A35G, Q99G; VL Q55V, F94Y (antibody, V domains shown)
VH: EVQLVQSGAEVKKPGESLKISCKGSGYSFTSYWIGWVRQMPGKGLEWMGIIYPGDSDTRYSPSFQGQVTISADKSISTAYLQWSSLKASDTAMYFCARGRTFYYDSSDYFDYWGQGTLVTVSS
VL: DIQMTQSPSSVSASVGDRVTITCRASQGISSWLAWYQQKPGKAPKLLIYAASSLVNGVPSRFSGSGSGTDFTLTISSLQPEDFATYFCQQADSYPRTFGQGTKLEIK
B5: V73: 6E7 variant: VH T30G, S63G, Q99G; VL L54R, F94Y (antibody, V domains shown)
VH: EVQLVQSGAEVKKPGESLKISCKGSGYSFGSYWIAWVRQMPGKGLEWMGIIYPGDSDTRYSPGFQGQVTISADKSISTAYLQWSSLKASDTAMYFCARGRTFYYDSSDYFDYWGQGTLVTVSS
VL: DIQMTQSPSSVSASVGDRVTITCRASQGISSWLAWYQQKPGKAPKLLIYAASSRQNGVPSRFSGSGSGTDFTLTISSLQPEDFATYFCQQADSYPRTFGQGTKLEIK
B6: V62: 6E7 variant: VH T30G, S61A, D108G; VL N56R, Q89G (antibody, V domains shown)
VH: EVQLVQSGAEVKKPGESLKISCKGSGYSFGSYWIAWVRQMPGKGLEWMGIIYPGDSDTRYAPSFQGQVTISADKSISTAYLQWSSLKASDTAMYFCARQRTFYYDSSGYFDYWGQGTLVTVSS
VL: DIQMTQSPSSVSASVGDRVTITCRASQGISSWLAWYQQKPGKAPKLLIYAASSLQRGVPSRFSGSGSGTDFTLTISSLQPEDFATYFCGQADSFPRTFGQGTKLEIK
B7: V74: 6E7 variant: VH T30A, T58V, Q99G; VL N56L (antibody, V domains shown)
VH: EVQLVQSGAEVKKPGESLKISCKGSGYSFASYWIAWVRQMPGKGLEWMGIIYPGDSDVRYSPSFQGQVTISADKSISTAYLQWSSLKASDTAMYFCARGRTFYYDSSDYFDYWGQGTLVTVSS
VL: DIQMTQSPSSVSASVGDRVTITCRASQGISSWLAWYQQKPGKAPKLLIYAASSLQLGVPSRFSGSGSGTDFTLTISSLQPEDFATYFCQQADSFPRTFGQGTKLEIK
B8: V60: 6E7 variant: VH S28H, T58V, F110S; VL N56R, Q89G (antibody, V domains shown)
VH: EVQLVQSGAEVKKPGESLKISCKGSGYHFTSYWIAWVRQMPGKGLEWMGIIYPGDSDVRYSPSFQGQVTISADKSISTAYLQWSSLKASDTAMYFCARQRTFYYDSSDYSDYWGQGTLVTVSS
VL: DIQMTQSPSSVSASVGDRVTITCRASQGISSWLAWYQQKPGKAPKLLIYAASSLQRGVPSRFSGSGSGTDFTLTISSLQPEDFATYFCGQADSFPRTFGQGTKLEIK
B9: V63: 6E7 variant: VH T30R, Q99S; VL N56R, S93R (antibody, V domains shown)
VH: EVQLVQSGAEVKKPGESLKISCKGSGYSFRSYWIAWVRQMPGKGLEWMGIIYPGDSDTRYSPSFQGQVTISADKSISTAYLQWSSLKASDTAMYFCARSRTFYYDSSDYFDYWGQGTLVTVSS
VL: DIQMTQSPSSVSASVGDRVTITCRASQGISSWLAWYQQKPGKAPKLLIYAASSLQRGVPSRFSGSGSGTDFTLTISSLQPEDFATYFCQQADRFPRTFGQGTKLEIK

Target: T1, human TREM2 (Homo sapiens, UniProt Q9NZC2)
T1 sequence (Q9NZC2 19-230): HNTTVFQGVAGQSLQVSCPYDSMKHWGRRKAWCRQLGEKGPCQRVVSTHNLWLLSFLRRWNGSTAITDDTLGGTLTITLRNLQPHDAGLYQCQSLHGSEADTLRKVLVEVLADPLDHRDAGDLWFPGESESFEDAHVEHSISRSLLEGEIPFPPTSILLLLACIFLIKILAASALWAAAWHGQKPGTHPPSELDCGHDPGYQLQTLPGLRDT
Conditions: for Binding Signal (fold over 6E7 Parental antibody) 1st screen 110 nM or 10 nM: values printed without asterisk, concentration 110 nM or 10 nM (footnote a not given)

Molecule | Binding Signal (fold over 6E7 Parental antibody) 1st screen 110 nM or 10 nM | Binding Signal (fold over 6E7 Parental antibody) 2nd screen 2 nM | Binding Signal (fold over 6E7 Parental antibody) 2nd screen 10 nM
B1 | 3.00 fold over 6E7 Parental antibod | 1.78 fold over 6E7 Parental antibod | 3.09 fold over 6E7 Parental antibod
B2 | 5.08 fold over 6E7 Parental antibod | 3.63 fold over 6E7 Parental antibod | 5.22 fold over 6E7 Parental antibod
B3 | 5.41 fold over 6E7 Parental antibod | 4.88 fold over 6E7 Parental antibod | 5.48 fold over 6E7 Parental antibod
B4 | 3.64 fold over 6E7 Parental antibod | 2.50 fold over 6E7 Parental antibod | 4.01 fold over 6E7 Parental antibod
B5 | 5.12 fold over 6E7 Parental antibod | 4.17 fold over 6E7 Parental antibod | 5.44 fold over 6E7 Parental antibod
B6 | 2.49 fold over 6E7 Parental antibod | 1.87 fold over 6E7 Parental antibod | 2.89 fold over 6E7 Parental antibod
B7 | 3.94 fold over 6E7 Parental antibod | 2.54 fold over 6E7 Parental antibod | 4.01 fold over 6E7 Parental antibod
B8 | 3.26 fold over 6E7 Parental antibod | 3.35 fold over 6E7 Parental antibod | 3.63 fold over 6E7 Parental antibod
B9 | 3.76 fold over 6E7 Parental antibod | 4.91 fold over 6E7 Parental antibod | 3.71 fold over 6E7 Parental antibod
